Assay results: PMC5913134, “The IL-33-PIN1-IRAK-M axis is critical for type 2 immunity in IL-33-induced allergic airway inflammation” (Nature Communications, 2018)

System: IRAK1
Test: In vitro phosphorylation by IRAK1 immunoprecipitated from IL-33 stimulated cells
Format: biochemical
Settings: IRAK1 IPed from IL-33 stimulated cells, γP32 ATP, autoradiography
Source text: Suppl em enta ry Figur e 2.
Supplementary Figure 2. IRAK-M DD structure modeling analysis and phosphorylation by IRAK1.
(a) Overlaid 1H-15N HSQC spectra of the 15N-labeled Pin1 WW domain showing changes in chemical environment resulting from titration with the phosphorylated IRAK-M peptide. Overlaid spectra of apo (red) and increasing amounts of ligand (rainbow of colors, with purple as highest ligand concentration) show progressive peak shifts. (b) Interaction between IRAK-M DD and IRAK1 DD from Figure 3f. Cyan: IRAK1 DDs, Yellow: IRAK-M DD. (c) The aromatic residues interaction between IRAK-M DD and IRAK4 DD from Figure 3f. Green: IRAK4 DDs, Yellow: IRAK-M DD. (d) IRAK-M or its mutants as described, were expressed in 293 cells or 293 IRAK1null cells expressing the ST2 receptor and treated with IL-33. The phosphorylation is shown by the slow migrating bands. (e) WT or Pin KO cells were treated with IL-33 and IRAK1 phosphorylation was monitored at different time after stimulation. (f) DC2.4 cells were either treated or not with IL-33. IRAK1 was IP’d and incubated with GST-IRAK-M aa1-120 in the presence of ΓP32ATP.
The beads were washed and GST-IRAK-M was eluted and run for autoradiography. […]

B1: GST-IRAK-M: purified GST-IRAK-M containing amino acids 1-120 (protein, UniProt Q8K4B2 1-120, looked up, fragment)
chain: MAGRCGARGALSPQLLLFDLPPALLGELCGILDSCDGPLGWRGLAERLSNSWLDVRHIEKYVNQGKSGTRELLWSWAQKNKTIGDLLEVLQDMGHQRAIHLIINYGVSWTPSVQTHHELP
modifications: GST tag
B1 was tested, and the “phosphorylation by IRAK1” value was “phosphorylated WT IRAK-M”.
